Seven molecules from US11781164B2, “Demethylation of reticuline and derivatives thereof with fungal cytochrome P450” (priority 2017, dated 2023) can be followed below.

Data set [1] relates to Cunninghamella echinulata ATCC 9244. The data set can be described thus: Fungal bioconversion of thebaine to northebaine by Cunninghamella echinulata cultures. In kind it is cell-based. The settings on record: 0.5 mg/ml thebaine added after 48 h of growth; eleven days after thebaine addition; supernatant, LC-MS. As for the experimental part:
(§1) Cunninghamella echinulata ATCC 9244 was propagated on potato dextrose agar at room temperature. Mature cultures on plates (7-10 days) were used for the preparation of concentrated spore suspensions. Spores were harvested by flooding the lawn culture with a sterile solution containing 0.9% sodium chloride and 0.01% Tween 80 (10 ml/plate), scratching them from the hyphae with the aid of a sterile loop and filtering the suspension through sterile cotton to remove hyphal fragments. Thamnostylum piriforme ATCC 8992 was propagated on malt extract agar (CM0059) at room temperature and spore suspensions were prepared as indicated above. […]
(§2) Media was inoculated with 0.25 ml of freshly-prepared spore suspensions. […] Eleven days after thebaine addition, supernatants were collected and analyzed by LC-MS. […] Thebaine and northebaine were monitored in the supernatants, reaching a conversion level of 25% on day 12 after substrate addition (FIG. 2).

The subject of data set [2] is Thamnostylum piriforme ATCC 8992. The data set can be described thus: Fungal bioconversion of thebaine to northebaine by Thamnostylum piriforme cultures. In kind it is cell-based. Here is the method: as §1, §2
Another data set relates to codeine. The data set can be described thus: In vitro N-demethylation of codeine by mammalian cytochrome P450s in crude yeast cell lysates. The settings on record: crude cell extract with human CPR and cytochrome b5; 0.2 mM substrate, pH 7, 30° C., approximately 20 hours; compared to negative control strain without cytochrome P450s.
Data set [3] has as its system thebaine. The data set can be described thus: In vitro N-demethylation of thebaine by mammalian cytochrome P450s in crude yeast cell lysates. The settings on record: crude cell extract with human CPR and cytochrome b5; 0.2 mM substrate, pH 7, 30° C., approximately 20 hours; compared to negative control strain without P450s.
The subject of data set [4] is oripavine. The data set can be described thus: In vitro N-demethylation of oripavine by mammalian cytochrome P450s in crude yeast cell lysates. The settings on record: crude cell extract with human CPR and cytochrome b5; 0.2 mM substrate, pH 7, 30° C., approximately 20 hours; compared to negative control strain without cytochrome P450s.
In the next data set the test system is salutaridine. The data set can be described thus: In vitro N-demethylation of salutaridine by mammalian cytochrome P450s in crude yeast cell lysates. The settings on record: crude cell extract with human CPR and cytochrome b5; 0.2 mM substrate, pH 7, 30° C., approximately 20 hours; compared to negative control strain without cytochrome P450s.
For data set [5], the system named is thebaine. The data set can be described thus: In planta conversion of thebaine by transient expression of demethylases and CPRs in Nicotiana benthamiana leaves. The settings on record: co-expressed with CPR_DN10898_c0_g1_i1_co or Cel_CPR_co; leaves re-infiltrated with 0.5 mM thebaine after 4 days, measured 1 day after.
For data set [6], the system named is thebaine. The data set can be described thus: Conversion of thebaine by demethylases heterologously expressed in Aspergillus nidulans. The settings on record: 0.5 mM thebaine, Minimal Medium pH 7, 84 hours; supernatant, LC-MS.
Data set [7] deals with thebaine. The data set can be described thus: Bioconversion of thebaine (N-demethylation to northebaine) by S. cerevisiae expressing cytochrome P450s and CPRs, LC-MS. The settings on record: 0.5 mM thebaine.
Data set [8] has as its system oripavine. The data set can be described thus: Bioconversion of oripavine (N-demethylation to nororipavine) by S. cerevisiae expressing cytochrome P450s and CPRs, LC-MS. The settings on record: 0.5 mM oripavine.
[9] abbreviates: pH 7, co-expressed with Cel_CPR_co, 72 h.
Where [10] appears, read: pH 7, 72 h, co-expressed with native or codon-optimized T. piriforme CPRs or Cel_CPR.

As for `COC1=CC=C2[C@H]3Cc4ccc(OC)c5c4[C@@]2(CCN3C)[C@H]1O5` [Thebaine, thebaine], the “conversion of thebaine to northebaine” value in data set [1] worked out at 6%; in [2] (0.5 mg/ml thebaine added after 48 h of growth, eleven days after thebaine addition, supernatant, LC-MS), 16%. In data set [2] (new T. piriforme cultures, day 12 after substrate addition), the “conversion level of thebaine to northebaine” value was determined as 25%.
For “Hs_CYP3A4: Cytochrome P450 3A4 (P08684), Homo sapiens”, the “in vitro N-demethylation activity on codeine” value in the data set on codeine was “detected”. Also, in the data set on thebaine [3], the “in vitro N-demethylation activity on Thebaine” value is reported as “detected”. In addition, in the data set with oripavine [4], the “in vitro N-demethylation activity on oripavine” value is “detected”. Further, in the data set with salutaridine, the “in vitro N-demethylation activity on salutaridine” value was “detected”.

B1: Ps_CODM_co: O-demethylase D4N502 from Papaver somniferum, codon optimized; positive control (protein, listed as Papaver somniferum)
chain: METPILIKLGNGLSIPSVQELAKLTLAEIPSRYTCTGESPLNNIGASVTDDETVPVIDLQNLLSPEPVVGKLELDKLHSACKEWGFFQLVNHGVDALLMDNIKSEIKGFFNLPMNEKTKYGQQDGDFEGFGQPYIESEDQRLDWTEVFSMLSLPLHLRKPHLFPELPLPFRETLESYLSKMKKLSTVVFEMLEKSLQLVEIKGMTDLFEDGLQTMRMNYYPPCPRPELVLGLTSHSDFSGLTILLQLNEVEGLQIRKEERWISIKPLPDAFIVNVGDILEIMTNGIYRSVEHRAVVNSTKERLSIATFHDSKLESEIGPISSLVTPETPALFKRGRYEDILKENLSRKLDGKSFLDYMRM
modifications: codon-optimized
As for B1, in the data set on thebaine [5], the “conversion of thebaine into oripavine in N. benthamiana leaves vs negative control” value was “capable of converting thebaine into oripavine” and the “northebaine levels in N. benthamiana leaves vs negative P19 control” value (“northebaine levels … vs negative P19 control” below) was “not apparent”.

B2: P450_DN12791_co: P450_DN_12791 from T. piriforme, codon optimized for S. cerevisiae (pEV32227) (protein)
chain: MAILQNLVLQSDQRHLGVVTAAVFLSAYALYRHESKKELGNECPTVPYTNPMFGSTDEYRKNPAAFVEKWSAALGPVFRVHIFGRMQTVVSGRYVREVLFNDNFSFVEGIRTRFDLRLLTGIPNSHLNDKDVREVVVKSLTAQMKKYTPRAVHYLSVGLQEALGDLKDPRTLDNLFLTVQNMVAKASASIFVGEELCNNIELVDTFKHVTSDIGSEIRLDNTWLEFFKTINQIRMWYVGKHSPRVTKHRRQLIQAMAPEIDRRLQGLAGNDPSWTRPEDILQEIMENYPSPSTVPADIYTYYANWMIVLIFASVHTTTEHATIVLYRLLQQPELIDELLQEQKEALGQGTVFTGEVIRKLVKLDSVCRESLRIKNEYFGLPHRNMSHENISLSNGVVIKPGDNVMLNVWTNHHDSDLQKDVHGNHDKFEPFRYVNADRPATKIGDDYLIFGEGKHACPGRWFALQEIKTIVSVLIRDYTLTPCGPIVFPSGTSTGIPSGEVTIQRKSEV
modifications: codon-optimized; Thamnostylum piriforme
Take B2: the “northebaine production in Aspergillus nidulans vs vector control” value (from here on “northebaine production … vs vector control”) in the data set with thebaine [6] is recorded as “production of northebaine was achieved”. The “thebaine N-demethylation activity” value in the data set with thebaine [7] (pH 7, co-expressed with Cel_CPR_co, 72 h, no significant difference between codon optimized and non-codon optimized versions) is recorded as “lower”. Besides, the nororipavine titers result in the data set on oripavine [8] (setting [9]) is on record as “highest nororipavine titers”.

B3: Hs_CYP3A5: Cytochrome P450 3A5 (P20815), Homo sapiens (protein, UniProt P20815 1-502, looked up)
Cytochrome P450 3A5: MDLIPNLAVETWLLLAVSLVLLYLYGTRTHGLFKRLGIPGPTPLPLLGNVLSYRQGLWKFDTECYKKYGKMWGTYEGQLPVLAITDPDVIRTVLVKECYSVFTNRRSLGPVGFMKSAISLAEDEEWKRIRSLLSPTFTSGKLKEMFPIIAQYGDVLVRNLRREAEKGKPVTLKDIFGAYSMDVITGTSFGVNIDSLNNPQDPFVESTKKFLKFGFLDPLFLSIILFPFLTPVFEALNVSLFPKDTINFLSKSVNRMKKSRLNDKQKHRLDFLQLMIDSQNSKETESHKALSDLELAAQSIIFIFAGYETTSSVLSFTLYELATHPDVQQKLQKEIDAVLPNKAPPTYDAVVQMEYLDMVVNETLRLFPVAIRLERTCKKDVEINGVFIPKGSMVVIPTYALHHDPKYWTEPEEFRPERFSKKKDSIDPYIYTPFGTGPRNCIGMRFALMNMKLALIRVLQNFSFKPCKETQIPLKLDTQGLLQPEKPIVLKVDSRDGTLSGE
As to B3, the “in vitro N-demethylation activity on codeine” value with codeine was “detected”. The “in vitro N-demethylation activity on Thebaine” value with thebaine [3] is reported as “detected”. Besides, the “in vitro N-demethylation activity on oripavine” value in the data set on oripavine [4] is given as “detected”. For the same molecule, the “in vitro N-demethylation activity on salutaridine” value in the data set with salutaridine is reported as “detected”.

B4: Mc_S2JT25_co: codon-optimized cytochrome P450 S2JT25 from Mucor circinelloides (protein)
chain: MTLIASYNQTLLERVISVVRKNKTSYIGMAILCVVLQQVYASFTVPPKYLRRYPTVSFFEMMKSFYRKESVLNRNKRLVTPLTNAGHGFYVCRIPLDWTIYVTDPIAAKTLLLKTDNFPKSHAIFGALGESSPAVKFMGSENVAVSNGEMWKKQRKIMNPAFHRSQPVKLFGGVMPDLFALIDQDPEHVFVAPRMKSFALDALGLSAFGFDFQSLKGDPEGWTSKYNTVISTLFNPFINLFAKYDFLIKYISPERRRVIKATDEFNVMLSNLADKRRQEILDGEKKDMAENEKDLLTLMIEADIREGVETTTTELRHNMAIFFLAGHDTTANTLALCLYQLAKHKHVQKKARQEVLDILGDDPCDVTPTLEDLKKLNYVNMVIKENLRRNSPVDNLMARDTHQDIDLNGTFIPKGSKVTVNVASIHLNPKIWHDPESFIPERFEPGGEYDGHDGFTWIPFSNGSRQCLGLNFSLTEQRVVLCMLLKRYEIEIPKDSIHYNEIVFDKPFTFAPQSLELSFKKRY
modifications: codon-optimized; Mucor circinelloides
In the case of B4, in the data set with thebaine [6], the “northebaine production … vs vector control” value is given as “production of northebaine was achieved”. For the same molecule, in the data set with thebaine [5], the “northebaine levels … vs negative P19 control” value is “clear increase in northebaine”. In addition, the “northebaine amount compared to Lr_P450_co” value with thebaine [7] (setting [10]) is given as “yielded the highest northebaine amount”. Also, the “amount of nororipavine compared to Lr_P450_co” value with oripavine [8] (setting [10]) is recorded as “resulted in the highest amount of nororipavine”.

B5: Lr_P450_co: P450 from Lichtheimia ramosa, codon optimized for S. cerevisiae (protein, listed as Lichtheimia ramosa)
chain: MTEIKEHIYRYRHYIGVAAAVALVCQQVYYRIFRIPKNLRHIPAIPYGQQLKALRSDEALTSRTKRLVFPLLSKCNGVYLNRMPFKWTIYVADPEIARAILFKPEFGHKTRSVTDSLDKNSSLFEFVGDDNIAIVNGHEWKEQRKIMNPAFHRATPVGMFGSLMPKVFRLVEEQPTLPALDLMQKLTLDALGKSVFGFEFGALDDPDSVWVKTYRQVFDSFTDVFSLVFPRLDPIYRYFSAKHREQYNAVYKLIDLLDGMADKKRSMLQDASNSDIKDVPDHEKDLLQLMLEAELRGEGSWTKRELRHNMAIFFVAGQDTTSHALTFCLYLLAKNQDIQKKAREEILNVFGDEPKDVFPTLEDCKKLNYLDMVIKESMRIYPPANDVLARDVNEDLNVKGVFIPKGSMVSVDIHALHHRPDLWHEPDKFNPDRFLPGGEHDSHVGVTYAPFSSGSRQCIALKFATMQQRVVLSMLLRKYEWELPKDSKHKDSIQFQIPFNIAPKDLELTFHKRY
modifications: codon-optimized
Consider B5, for which the “northebaine production … vs vector control” value in the data set on thebaine [6] was “not apparent”. Moreover, the “northebaine levels … vs negative P19 control” value in the data set with thebaine [5] is “clear increase in northebaine”. Further, the “activity towards thebaine, converting it to northebaine” value with thebaine [7] (pH 7, 72 h, co-expressed with CPR_DN5866_c0_g1_i1_Cd9, CPR_DN10898_c0_g1_i1_1A or Cel_CPR_co (at least one of the tested CPRs)) is “performing the best conversion of thebaine into northebaine”. Moreover, in the data set on thebaine [7] (setting [9]), the northebaine titer result is “more than 7 mg/L” and the “northebaine titers higher compared to P450_DN15259_co” value is 2 fold.
